± gives the uncertainty stated by the source.
Assay: self-splicing fitness, log relative to wild type (ln ratio); higher = more splicing; Tetrahymena group I intron in knt gene, E. coli kanamycin selection, DiMSum; sequences stand for … in CUCUCU…GGAGGGAAAAGUUAUCAGGCAUGCACCUGGUAGCUAGUCUUUAAACCAAUAGAUUGCAUCGGUUUAAAAGGCAAGACCGUCAAAUUGCGGGAAAGGGGUCAACAGCCGUUCAGUACCAAGUCUCAGGGGAAACUUUGAGAUGGCCUUGCAAAGGGUAUGGUAAUAAGCUGACGGACAUGGUCCUAACCACGCAGCCAAGUCCUAAGUCAACAGAUCUUCUGUUGAUAUGGAUGCAGUUCACAGACUAAAUGUCGGUCGGGGAAGAUGUAUUCUUCUCAUAAGAUAUAGUCGGACCUCUCCUUAAUGGGAGCUAGCGGAUGAAGUGAUGCAACACUGGAGCCGCUGGGAACUAAUUUGUAUGCGAAAGUAUAUUGAUUAGUUUUGGAGUACUCGUGGUCG
Summary of the method: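 DiMSum derived fitness as the error-weighted combination of fold changes across replicates, kanamycin versus no kanamycin, normalised to wild type. E. coli BL21(DE3) held the library, which randomised all eight P1ex-region intron nucleotides within the knt kanamycin-resistance gene on pET-22b(+). Six replicate transformations grew overnight at 37°C or 30°C on LB agar with or without 25 μg/mL kanamycin, also containing 100 μg/mL carbenicillin, 50 μM IPTG and 0.2% rhamnose, and pooled colonies were amplicon-sequenced on an Illumina HiSeq 2500.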

Sequence	self-splicing fitness (ln) (30 °C)	self-splicing fitness (ln) (37 °C)
UCUCAGCAAUAUUACGCGUG	-4.26 ± 0.24	-3.11 ± 0.21
UCUCAGCAAUAUUACGCUAU	-3.62 ± 0.43	-2.37 ± 0.23
UCUCAGCAAUAUUACGCUCG	-3.93 ± 0.25	-2 ± 0.19
UCUCAGCAAUAUUACGCUGG	-3.25 ± 0.2	-2.67 ± 0.2
UCUCAGCAAUAUUACGGAAA	-1.45 ± 0.14	-0.892 ± 0.14
UCUCAGCAAUAUUACGGACA	-0.71 ± 0.099	-0.369 ± 0.1
UCUCAGCAAUAUUACGGAUG	-2.78 ± 0.12	-0.753 ± 0.13
UCUCAGCAAUAUUACGGCAG	-3.36 ± 0.31	-0.98 ± 0.19
UCUCAGCAAUAUUACGGCGC	-2.56 ± 0.22	-1.78 ± 0.31
UCUCAGCAAUAUUACGGGUG	-0.627 ± 0.072	-0.219 ± 0.083
UCUCAGCAAUAUUACGGUCA	0.115 ± 0.061	0.0673 ± 0.075
UCUCAGCAAUAUUACGGUGG	-2.24 ± 0.14	-2.31 ± 0.18
UCUCAGCAAUAUUACGUAAC	-2.74 ± 0.21	-2.2 ± 0.28
UCUCAGCAAUAUUACGUAGU	-1.71 ± 0.1	-0.822 ± 0.11
UCUCAGCAAUAUUACGUAUG	-2.86 ± 0.42	-2.79 ± 0.38
UCUCAGCAAUAUUACGUUAG	-3.98 ± 0.4	-2.34 ± 0.27
UCUGAGCAAUAUUACGAAAG	-2.21 ± 0.27	-1.71 ± 0.27
UCUGAGCAAUAUUACGACCG	-2.92 ± 0.4	-2.39 ± 0.46
UCUGAGCAAUAUUACGACGG	-1.18 ± 0.11	-0.451 ± 0.12
UCUGAGCAAUAUUACGCAUC	–	-2.47 ± 0.49
UCUGAGCAAUAUUACGCCUA	–	-0.697 ± 0.44
UCUGAGCAAUAUUACGCGGG	-3.91 ± 0.26	-2.29 ± 0.2
UCUGAGCAAUAUUACGGACU	-2.57 ± 0.39	-1.21 ± 0.41
UCUGAGCAAUAUUACGGAGA	-2.35 ± 0.17	-0.963 ± 0.14
UCUGAGCAAUAUUACGGAGC	-2.77 ± 0.21	-2.92 ± 0.2
UCUGAGCAAUAUUACGGCAC	-4.07 ± 0.47	-1.06 ± 0.28

Sequence	self-splicing fitness (ln) (30 °C)	self-splicing fitness (ln) (37 °C)
UCUGAGCAAUAUUACGGCGG	-0.492 ± 0.094	-0.249 ± 0.14
UCUGAGCAAUAUUACGGUAC	-3.24 ± 0.47	–
UCUGAGCAAUAUUACGUGAU	-3.42 ± 0.23	-1.42 ± 0.44
UCUGAGCAAUAUUACGUGCU	-3.52 ± 0.4	–
UCUGAGCAAUAUUACGUUAC	-3.38 ± 0.2	-2.33 ± 0.22
UCUGAGCAAUAUUACGUUAU	-3.6 ± 0.31	-3.68 ± 0.42
UCUGAGCAAUAUUACGUUCU	-3.98 ± 0.3	-2.89 ± 0.31
UCUGAGCAAUAUUACGUUGG	-0.956 ± 0.13	-0.905 ± 0.15
UCUUAGCAAUAUUACGAAAU	-3.48 ± 0.33	-3.09 ± 0.35
UCUUAGCAAUAUUACGAAUC	-3.32 ± 0.5	–
UCUUAGCAAUAUUACGAGAG	-2.35 ± 0.26	-0.861 ± 0.16
UCUUAGCAAUAUUACGAUAU	–	-1.78 ± 0.38
UCUUAGCAAUAUUACGAUCG	-1.44 ± 0.19	-0.631 ± 0.19
UCUUAGCAAUAUUACGAUCU	-2.59 ± 0.29	-2.04 ± 0.29
UCUUAGCAAUAUUACGAUGA	-0.467 ± 0.082	0.223 ± 0.084
UCUUAGCAAUAUUACGCACC	–	-1.21 ± 0.37
UCUUAGCAAUAUUACGCAGU	-2.76 ± 0.22	-1.05 ± 0.13
UCUUAGCAAUAUUACGCAUG	-1.98 ± 0.18	-0.995 ± 0.19
UCUUAGCAAUAUUACGCCGG	-1.85 ± 0.26	0.459 ± 0.31
UCUUAGCAAUAUUACGCGGC	-2.44 ± 0.3	-0.722 ± 0.36
UCUUAGCAAUAUUACGCUUC	-4.09 ± 0.35	-2.41 ± 0.19
UCUUAGCAAUAUUACGGAAG	–	-1.81 ± 0.41
UCUUAGCAAUAUUACGGAGA	–	-2.76 ± 0.38
UCUUAGCAAUAUUACGGCAG	-3.36 ± 0.26	-2.23 ± 0.3
UCUUAGCAAUAUUACGGCAU	-3.42 ± 0.33	-1.75 ± 0.23
